Test results taken from article PMC4894967.

Molecular target: ATM/Tel1 kinase from Schizosaccharomyces pombe (S. pombe) (UniProt O74630)
Experiment: cryo-EM structure; single-particle cryo-EM of purified ATM/Tel1, 20-50 ug/ml in 20 mM HEPES pH 8.0, 40 mM KOAc, 5 mM MgCl2, 0.1% trehalose, 2 mM DTT, 0.01% NP-40; 8.7 Å; initial model from negative-stain RCT

- stoichiometry N: 2
Substance: ATM/Tel1 kinase from Schizosaccharomyces pombe, O74630 1-2812
